Experiments:
MEC-1 cell line (CD71+) = test: Comparative binding on MEC-1 cell line by flow cytometry; conditions: biotinylated antibodies, serial dilutions 5 to 0.05 ug/mL, streptavidin Alexa F488
Protocol: (§1) Serial dilutions (5 to 0.05 ug/mL) of both biotinylated antibodies (antibody A24 and antibody of ADC INA01-SDV1) were performed and incubated on THP-1 and MEC-1 cell lines. The binding of the diluted antibodies was detected by Flow cytometry using streptavidin Alexa F488 (available at ThermoFisher scientific).

THP-1 cell line (CD71+) = test: Comparative binding on THP-1 cell line by flow cytometry; conditions: biotinylated antibodies, serial dilutions 5 to 0.05 ug/mL, streptavidin Alexa F488
Protocol: as §1

B1: A24: murine monoclonal anti-human TfR antibody as disclosed in WO 2005/111082 (antibody, listed as Homo sapiens, V domains shown)
VH: QIQLVQSGPELKKPGETVKISCKASGYTFTNQGMNWVKQAPGKGLKWMGWINTYTGEPINADDFKGRFAISLETSASTAYLQINNLKNEDMATYFCVREGWDSMDYWGQGTSVTVSS
VL: QIVLTQSPAIMSASPGEKVTITCSASSSVNYMHWFQQKPGTSPKLWIYSTSNLASGVPARFSGSGSGTSYSLTISRMEAEDAATYYCQQRSSYPLTFGAGTKLELKR
affinity to the CD71+ cell line (binding) (MEC-1 cell line (CD71+)): identical affinity | affinity to the CD71+ cell line (binding) (THP-1 cell line (CD71+)): identical affinity

— patent publication US12667625B2, “Antibody-drug conjucates and their uses for the treatment of cancer” (INATHERYS, priority 2018, dated 2026)
